T1: human G-CSF receptor (human, UniProt Q99062 25-836)
T1 sequence (looked up): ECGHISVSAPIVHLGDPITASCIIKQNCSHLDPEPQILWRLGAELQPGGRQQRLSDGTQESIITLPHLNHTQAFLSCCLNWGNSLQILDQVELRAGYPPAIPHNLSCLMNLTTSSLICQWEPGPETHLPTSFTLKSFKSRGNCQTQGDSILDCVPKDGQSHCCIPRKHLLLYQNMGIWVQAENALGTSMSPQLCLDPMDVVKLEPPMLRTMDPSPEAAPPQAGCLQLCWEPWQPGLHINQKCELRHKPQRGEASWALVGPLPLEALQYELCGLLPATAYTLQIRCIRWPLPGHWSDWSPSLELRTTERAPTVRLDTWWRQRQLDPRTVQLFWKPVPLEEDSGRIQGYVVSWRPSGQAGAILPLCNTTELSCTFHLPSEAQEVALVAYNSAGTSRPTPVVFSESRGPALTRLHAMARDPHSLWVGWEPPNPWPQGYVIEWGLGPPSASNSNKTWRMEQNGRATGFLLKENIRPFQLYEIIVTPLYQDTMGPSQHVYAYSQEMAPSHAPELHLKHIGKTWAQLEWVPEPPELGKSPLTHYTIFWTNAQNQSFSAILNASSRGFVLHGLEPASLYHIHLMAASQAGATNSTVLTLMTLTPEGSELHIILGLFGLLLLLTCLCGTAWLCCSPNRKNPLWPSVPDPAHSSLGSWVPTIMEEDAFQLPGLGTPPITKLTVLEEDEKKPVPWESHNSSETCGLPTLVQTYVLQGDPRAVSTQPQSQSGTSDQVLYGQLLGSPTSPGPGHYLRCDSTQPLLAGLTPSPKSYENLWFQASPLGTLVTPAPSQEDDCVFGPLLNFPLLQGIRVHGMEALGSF

B1: G-CSF variant K16/34/40R Q90K conjugated to SPA-PEG 5000 (ligand)
chain: TPLGPASSLPQSFLLRCLEQVRKIQGDGAALQERLCATYRLCHPEELVLLGHSLGIPWAPLSSCPSQALQLAGCLSQLHSGLFLYQGLLKALEGISPELGPTLDTLQLDVADFATTIWQQMEELGMAPALQPTQGAMPAFASAFQRRAGGVLVASHLQSFLEVSYRVLRHLAQP
modifications: SPA-PEG 5000 conjugated to the available PEGylation sites
B2: G-CSF variant K16/34/40R S142K, non-conjugated (ligand)
chain: B1 chain with K90Q, S142K
B3: G-CSF variant 16Q, non-conjugated (ligand)
chain: B1 chain with R16Q, R34K, R40K, K90Q
B4: G-CSF variant K16/34/40R Q158, non-conjugated (ligand)
chain: B1 chain with K90Q, Q158K
B5: G-CSF variant K16/34/40R S155K, non-conjugated (ligand)
chain: B1 chain with K90Q, S155K
B6: G-CSF variant K16/34/40R T133K conjugated to SPA-PEG 5000 (ligand)
chain: B1 chain with K90Q, T133K
modifications: SPA-PEG 5000 conjugated to the available PEGylation sites
B7: G-CSF variant K16/34/40R R147K, non-conjugated (ligand)
chain: B1 chain with K90Q, R147K
B8: G-CSF variant K16/34/40R Q158 conjugated to SPA-PEG 5000 (ligand)
chain: B1 chain with K90Q, Q158K
modifications: SPA-PEG 5000 conjugated to the available PEGylation sites
B9: G-CSF variant K16/34/40R T105K, non-conjugated (ligand)
chain: B1 chain with K90Q, T105K
B10: G-CSF variant K16/34/40R D104K conjugated to SPA-PEG 5000 (ligand)
chain: B1 chain with K90Q, D104K
modifications: SPA-PEG 5000 conjugated to the available PEGylation sites
B11: G-CSF variant K16/34/40R Q120K, non-conjugated (ligand)
chain: B1 chain with K90Q, Q120K
B12: G-CSF variant K16/34/40R Q120K conjugated to SPA-PEG 5000 (ligand)
chain: B1 chain with K90Q, Q120K
modifications: SPA-PEG 5000 conjugated to the available PEGylation sites
B13: G-CSF variant K16/34/40R T133K, non-conjugated (ligand)
chain: B1 chain with K90Q, T133K
B14: G-CSF variant K16/34/40R R147K conjugated to SPA-PEG 5000 (ligand)
chain: B1 chain with K90Q, R147K
modifications: SPA-PEG 5000 conjugated to the available PEGylation sites
B15: G-CSF variant K16/34/40R Q134K conjugated to SPA-PEG 5000 (ligand)
chain: B1 chain with K90Q, Q134K
modifications: SPA-PEG 5000 conjugated to the available PEGylation sites
B16: G-CSF variant K16/34/40R Q134K, non-conjugated (ligand)
chain: B1 chain with K90Q, Q134K
B17: G-CSF variant K16/34/40R S155K conjugated to SPA-PEG 5000 (ligand)
chain: B1 chain with K90Q, S155K
modifications: SPA-PEG 5000 conjugated to the available PEGylation sites
B18: G-CSF variant K16/34/40R S142K conjugated to SPA-PEG 5000 (ligand)
chain: B1 chain with K90Q, S142K
modifications: SPA-PEG 5000 conjugated to the available PEGylation sites
B19: G-CSF variant K16/34/40R T105K conjugated to SPA-PEG 5000 (ligand)
chain: B1 chain with K90Q, T105K
modifications: SPA-PEG 5000 conjugated to the available PEGylation sites
B20: G-CSF variant K16/34/40R D104K, non-conjugated (ligand)
chain: B1 chain with K90Q, D104K

Results on 20 molecules are retold here after patent publication US20030118612A1 (MAXYGEN, published 2003).

Changes are numbered by the printed parent chain. Names and notes keep the numbering of the source.

This test has as its target T1, human G-CSF receptor. The test can be described thus: cell-based or functional assay.
Regarding B1, the “EC50 (% of hG-CSF) conjugated to SPA-PEG 5000” value (“EC50 (% of hG-CSF) conjugated” below) is 20 % of hG-CSF.
On to B2, for which the “EC50 (% of hG-CSF) non-conjugated” value was 20 % of hG-CSF.
B3: the “EC50 (% of hG-CSF) non-conjugated” value was 80 % of hG-CSF.
For the molecule B4, the “EC50 (% of hG-CSF) non-conjugated” value was 20 % of hG-CSF.
With B5, the “EC50 (% of hG-CSF) non-conjugated” value was 20 % of hG-CSF.
On to B6, for which the “EC50 (% of hG-CSF) conjugated” value is 10 % of hG-CSF.
On to B7, for which the “EC50 (% of hG-CSF) non-conjugated” value is 20 % of hG-CSF.
Regarding B8, the “EC50 (% of hG-CSF) conjugated” value is 5 % of hG-CSF.
Regarding B9, the “EC50 (% of hG-CSF) non-conjugated” value was 30 % of hG-CSF.
Consider B10, for which the “EC50 (% of hG-CSF) conjugated” value is 0.9 % of hG-CSF.
B11: the “EC50 (% of hG-CSF) non-conjugated” value was 30 % of hG-CSF.
B12: the “EC50 (% of hG-CSF) conjugated” value was 20 % of hG-CSF.
B13: the “EC50 (% of hG-CSF) non-conjugated” value was 30 % of hG-CSF.
As to B14, the “EC50 (% of hG-CSF) conjugated” value was 1 % of hG-CSF.
On the same count and under the same terms, then B15, with 0.2 % of hG-CSF.
As to B16, the “EC50 (% of hG-CSF) non-conjugated” value is 10 % of hG-CSF.
Turning to B17, the “EC50 (% of hG-CSF) conjugated” value is 1 % of hG-CSF.
With B18, the “EC50 (% of hG-CSF) conjugated” value is 7 % of hG-CSF.
With B19, the “EC50 (% of hG-CSF) conjugated” value is 10 % of hG-CSF.
Regarding B20, the “EC50 (% of hG-CSF) non-conjugated” value was 10 % of hG-CSF.
